{
  "source": "the nanobody polyreactivity screen of Harvey et al. (2022)",
  "data": [
    {"assay": "yeast display, Sf9 membrane polyspecificity reagent, FACS + sequencing; frameworks hold sequencing errors", "method_in_brief": "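A nanobody's polyreactivity label depends on the gate it was sorted from. Yeast display cells were stained with 10% biotinylated, detergent-solubilized Sf9 membrane reagent for 1 hour at 4 °C, enriched on streptavidin microbeads and sorted by FACS. The low and high (top ~1%) gates were set on anti-HA fluorescence for expression and streptavidin fluorescence for reagent binding.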", "values": [
      {"sequence": "QVQLVESGGGLVQAGGSLRLSFAASGSIFGPYVMGWYRQAPGKERELVAAISKSGGSTYYADSVKGRFTISRDNAKNTVYLQMNSLKPEDTAVYYCATDYLGGGKRYYYWGQGTQVTVSS", "polyreactivity (PSR sort gate)": "high polyreactivity"},
      {"sequence": "QVQLVESGGGLVQAGGSLRLSFAASGSIFSTYAMVWYRQAPGKERELVAAISTRGGRTYYADSLKGRFTLSRDNAKNTVYLQMNSLKPEDTAVYYCAADRYKTIGQWYYYWGQGTQVTVSS", "polyreactivity (PSR sort gate)": "high polyreactivity"},
      {"sequence": "QVQLVESGGGLVQAGGSLRLSFAASGSIFSYYPMGWYSQAPGKERELVAAISTSGGRTYYADSVKGRFTISRDNEKNTVYLQLYSLKPEDTPVYYCAAPVRWKNYDYWGQGTQVTVSS", "polyreactivity (PSR sort gate)": "high polyreactivity"},
      {"sequence": "QVQLVESGGGLVQAGGSLRLSFAASGSISLYYAMGWYRKAPGKETELVAAISTRGGSTYYADSVKGRFTISRDNAKNTVYLQMNSLKPEDTAVYYCAARTRLTADPRYGISSKMYYWGQGTQVTVSS", "polyreactivity (PSR sort gate)": "high polyreactivity"},
      {"sequence": "QVQLVESGGGLVQAGGSLRLSFAASGSTFNIYTMGWYRQAPGKEWELVARITFSGGSTYYADSVKGRFTISRDYAKNTVYLQMNSLKPEDTAVYYCAVRVYRVDHFCYDYWGQGTQVTVSS", "polyreactivity (PSR sort gate)": "high polyreactivity"},
      {"sequence": "QVQLVESGGGLVQAGGSLRLSFAASGSTFPSYAMGWYRQAPGKERELVAAITKGGSTTYADSVKGRFTISRDNAKNTVYLQMNSLKPEDTAVYYCAARYYYYYYYIRRDYWGQGTQVTVSS", "polyreactivity (PSR sort gate)": "low polyreactivity"},
      {"sequence": "QVQLVESGGGLVQAGGSLRLSGAASGGTFSTNAMGWYRQAPGKERELVAAISLSGGRTYADSEKGRFTISRDNAKNTVYLKMNSVKPEDTAVYYCNADSAGITRARSELDYWGQGTQVTVSS", "polyreactivity (PSR sort gate)": "low polyreactivity"},
      {"sequence": "QVQLVESGGGLVQAGGSLRLSGAASGRIFVRNAMGWYRQAPGKERELVADITNGGSTNYADSVKGRFTISRDNAKNTVYLQMNSLKPEDTAVYYCAADTLGVYDGDYWGQGTQVTVSS", "polyreactivity (PSR sort gate)": "low polyreactivity"},
      {"sequence": "QVQLVESGGGLVQAGGSLRLSGAASGRIFYYNALGWYRPAPGKEREFVAAITWSGTSTNYADSLKGRFTISRDNAKNTVYLQMNSLKPEDTAVYYCAAQLRNSSRTYYRSGYWGQGTQVTVSS", "polyreactivity (PSR sort gate)": "high polyreactivity"},
      {"sequence": "QVQLVESGGGLVQAGGSLRLSGAASGSIFDIYAMGWYRPAPGKERELVADITISGGSTYYADSVKVRFTISRDNAKNTVYLQMNSLIPEDTAVYYCAADVTVVLGYKYDYWGQGTQVTVSS", "polyreactivity (PSR sort gate)": "low polyreactivity"},
      {"sequence": "QVQLVESGGGLVQAGGSLRLSGAASGSTFDIYAMGWYRQPPGKESELVAAITVSGGSTYYADSVKGSFTISRDNAKNTVYLQMNSLKPEDTAVYYCNADWSGWQGWYNYWGQGTQVTVSS", "polyreactivity (PSR sort gate)": "low polyreactivity"},
      {"sequence": "QVQLVESGGGLVQAGGSLRLSGAASGSTFESYAMGWYRQAPGKERELVAAISWRVGSTYYADSVKGRFTISRDNAKNTVYLQMNSLKPEDTAVYDCASKGRYAHYGGYDYWGQGTQVTVSS", "polyreactivity (PSR sort gate)": "low polyreactivity"},
      {"sequence": "QVQLVESGGGLVQAGGSLRLSGAASGSTFYSYAMGWYRQAPGKERELVAAISGSGASTYYADSVKGSFTISRDNAKNTVYLLMNSLKPEETAVYYCAADKPGIFSRFDYWGQGTQVTVSS", "polyreactivity (PSR sort gate)": "low polyreactivity"},
      {"sequence": "QVQLVESGGGLVQAGGSLRLSGAASGTLYINLMGWYRQATGKERDLVAAISSNGARTYYADSVKGRFTISRDNAKNTVYLQMNSLKPDDTAVYYSNRVASVRARDYDYWGQGTQVTVSS", "polyreactivity (PSR sort gate)": "high polyreactivity"},
      {"sequence": "QVQLVESGGGLVQAGGSLRLSGADSGLTFRRNAMGWYRQAPGNERELVAAIRTGGSTYYADSVKGRFTISRDNAKNTVYLQMNSLKPEDTAVYYCAARSLIGSRLVPMNFWGQGTQVTVSS", "polyreactivity (PSR sort gate)": "high polyreactivity"},
      {"sequence": "QVQLVESGGGLVQAGGSLRLSGSASGIIFIYYTIGWYRQAPGTESELVAVITTSGDGTYYADSVKGRFTISRDNAKNTVYLQMNSLKPEDTAVYYCAASYSTWVSTRNDYWGQGTQVTVSS", "polyreactivity (PSR sort gate)": "low polyreactivity"},
      {"sequence": "QVQLVESGGGLVQAGGSLRLSRAASGFIFRVYAMGWYRQAPGKERELVAAITGNGVSTYYADSVKGRFTISRDNAKNTVYLQMNSLKPEDTAVYYCATYGRRWYSSRRLDYWGQGTQVTVSS", "polyreactivity (PSR sort gate)": "low polyreactivity"},
      {"sequence": "QVQLVESGGGLVQAGGSLRLSRAASGITFRFYAMGWYRQAPGKERQVVARISSSGSRTYYADSVKVRFTISRDNAKNTVYLQMNSLKPEDTAVYYCNAVRRRYQSLLQGDYWGQGTQVTVSS", "polyreactivity (PSR sort gate)": "high polyreactivity"},
      {"sequence": "QVQLVESGGGLVQAGGSLRLSRAASGSIFDDYAMGWYRQAPGKERELVAAITSGGSTYYADSVKGRFTMSRDNAKNTVYLQRNSLKPEDTAVYYRATRYHWSSSFAPVGAYGYWGQGTQVTVSP", "polyreactivity (PSR sort gate)": "low polyreactivity"},
      {"sequence": "QVQLVESGGGLVQAGGSLRLSRAASGSIFVSNAMGWYRQAPGKERELVAAIRGVDSTYYADSVKGRFTISRDNAKTTVYLQMNSLKPEDTAVYYCATRGPGYPRYYDWGQGTQVTVSS", "polyreactivity (PSR sort gate)": "high polyreactivity"},
      {"sequence": "QVQLVESGGGLVQAGGSLRLSRAASGSTFVENAMGWYRQAPGKERELVAAISSSGDSTFYADSVKGRFTISRDNAKNTVYLQMNSLKPEDTAVYYCAADRRINYDGLDMDYWGQGTQVTVSS", "polyreactivity (PSR sort gate)": "low polyreactivity"},
      {"sequence": "QVQLVESGGGLVQAGGSLRLSRDASGIIIYDYDIGWYRKAPGKERELVAAITSSGGSTYYADSVKGRFTLSRDNAKNTVYLQMNSLIPEDTAVYYCAAATRGSGRRYDYWGQGTQVTVSS", "polyreactivity (PSR sort gate)": "high polyreactivity"},
      {"sequence": "QVQLVESGGGLVQAGGSLRLSSAASGFIFFRYARGWYRQEPGKEREFVAAISWSGGRTYYADSVKGRFTISRDNAKNTVYLQMNSLKPEDTAVYYCAAYPSYWGYGYPGHDYWGQGTQVTVSS", "polyreactivity (PSR sort gate)": "high polyreactivity"},
      {"sequence": "QVQLVESGGGLVQAGGSLRLSSAASGFIFGGYSMGWYRQAPGKERELVAAISRSGGSTYYADSVKGRFTISRDNPKNTVYLQMNSLKPEDTAVYYCNAVPRRQGFNYWGHGTQVTVSS", "polyreactivity (PSR sort gate)": "high polyreactivity"},
      {"sequence": "QVQLVESGGGLVQAGGSLRLSSAASGFIFQKYVMGWSRQAPGKETEMVAVISRSGDSTRYADSVQGRFTISRDNAKNTVYLQMNSLKPEDTAVYYCAAASAKLTGTGYYYWGQGTQVTVSS", "polyreactivity (PSR sort gate)": "high polyreactivity"},
      {"sequence": "QVQLVESGGGLVQAGGSLRLSSAASGFIFYDYAMGWYRQAPGKERALVAAIRSSDGGTYYADSVKGRFTISRDNAKNTVYLQMNSLKPEDTAVYYCAARPSYYDYDYWGQGTQVTVSS", "polyreactivity (PSR sort gate)": "low polyreactivity"},
      {"sequence": "QVQLVESGGGLVQAGGSLRLSSAASGFTFEFYAMGWYRQAPGKERELVAAITGSGGSTYYADSVKGRFTISRDNAKNTVYLQMNCLKPEDTAVYYWNAVTRRSAQVGHDYWGQVTQVTVSS", "polyreactivity (PSR sort gate)": "high polyreactivity"},
      {"sequence": "QVQLVESGGGLVQAGGSLRLSSAASGFTFIRSTMGWYRQAPGKEREFVAAITWSGDSTYYADSVKGRFTISRDNAKNTVYLQMNSLKPEDTAVYYCAAESDPYSPEYDYWGQGTQVTVSS", "polyreactivity (PSR sort gate)": "low polyreactivity"},
      {"sequence": "QVQLVESGGGLVQAGGSLRLSSAASGFTFKAYALGWYRQAPGTERELVAAITKSGGRTFYADSVKGRFTISRDNAKNTVYLQINCLNPEDTAVYYCSGRRWGYWTGYRGLDYDYWGQGTQVTVSS", "polyreactivity (PSR sort gate)": "high polyreactivity"},
      {"sequence": "QVQLVESGGGLVQAGGSLRLSSAASGFTFKYYAMGWYRQAPGKERELVARITGSSGSTYYADSVKGRFTISRDNAKNTVYLQMNSLKPEDTAVYYCAASFKFRYYRYGAYEYWGQGTQVTVSS", "polyreactivity (PSR sort gate)": "high polyreactivity"},
      {"sequence": "QVQLVESGGGLVQAGGSLRLSSAASGFTFRAYTMGWYRQAPGKERELVAAISWSGSSTYYADSVKGRFTISRDTAKNTVYLQMNSLKPEDTAVYYCAARHWRRWFPYDYWGQGTQVTVSS", "polyreactivity (PSR sort gate)": "high polyreactivity"},
      {"sequence": "QVQLVESGGGLVQAGGSLRLSSAASGFTFTIYAMGWYRPAPGKERELVDTISTRGGNTYYADSVKGRFTISRDNAKNTVYLQMNSLKPEDTAVYYCAAEHWFPSAPWYYSDLHYYWGQGTQVTVSS", "polyreactivity (PSR sort gate)": "high polyreactivity"},
      {"sequence": "QVQLVESGGGLVQAGGSLRLSSAASGFTFWYYAMGWYRQAPGKERELVAAITWNGGSTYYADSVKGRFTISRDNAKNTVYLQMNSLKPEDTAVYYCNAYSPFYPVPSEYDYWGQGTQVTVSS", "polyreactivity (PSR sort gate)": "high polyreactivity"},
      {"sequence": "QVQLVESGGGLVQAGGSLRLSSAASGIIFRGYVMGWYRQAPGKERELVAASTWSGGSTYYADSVKGRFTISRDNAKNTVYLQMNSLKPEDTAVYYCNAVRVRVTSHRIRQLDYGYWGQGTQVTVSS", "polyreactivity (PSR sort gate)": "low polyreactivity"},
      {"sequence": "QVQLVESGGGLVQAGGSLRLSSAASGIIFRRYAMGWYRQAPGKERELVAAMSWSGGSTYYADSVKGRFTISRDNAKNTVYLQMNSLKPEDTAVYYCAAAAYTRDEYDYWGQGTQVTVSS", "polyreactivity (PSR sort gate)": "high polyreactivity"},
      {"sequence": "QVQLVESGGGLVQAGGSLRLSSAASGITFLTNAMGWYRQAPGKERELVAAISGRGTRTYYADSVKGRFTISRDNAKKTVFLQMNRLKPEDTAVYYCAAVRRPVHYPYDYWGQGNQVTVSS", "polyreactivity (PSR sort gate)": "high polyreactivity"},
      {"sequence": "QVQLVESGGGLVQAGGSLRLSSAASGITFRRYAMGWYRQAPGKERELVASITSGGSTNYADSVKGRFTISRDNAKYTVYLQMNSLKPDDTAVYYCAADSRWGMDYWGQGTQVTVSS", "polyreactivity (PSR sort gate)": "high polyreactivity"},
      {"sequence": "QVQLVESGGGLVQAGGSLRLSSAASGITFSEYAMGRYRQAPGKERELVATITSGGSTNYADSVKGRFTISRDNAKNTVYLQMNSLKPEDTAVYYCNALDGTVDFSGWYDDWGQGTQVTVSS", "polyreactivity (PSR sort gate)": "low polyreactivity"},
      {"sequence": "QVQLVESGGGLVQAGGSLRLSSAASGITFSKNAMGRYRQAPGKERELVAAISNSGGSTYYADSVKGRFTISRDNAKNTVYLQMNSVNPEDTAVYYCASDGGYAYGYNHWGQGTQVTVSS", "polyreactivity (PSR sort gate)": "low polyreactivity"},
      {"sequence": "QVQLVESGGGLVQAGGSLRLSSAASGLIYPVYAMGWYRQAPGKEREFVASIWRGGTTYYADSVKGRFTISRDNAKNTVYLQMTSLKPEDTAVYYCASRYYPRGLVFPFTKYDYWGLGTQVTVSS", "polyreactivity (PSR sort gate)": "high polyreactivity"}
    ]}
  ]
}
